Laboratory results taken from publication PMC3196555.

Experiments:
[1] = molecular target: myc-SH2B3 (human) (UniProt Q9UQQ2); assay: co-IP; 293T cells transfected with pCMV5-TrkA and a myc construct, 100 ng/ml NGF for 15 min; RIPA lysate precipitated with anti-myc antibody, blotted with anti-myc and anti-TrkA
[2] = molecular target: TrkA (UniProt P35739); assay: co-IP; 293T cells transfected with pCMV5-TrkA and a myc construct, 100 ng/ml NGF for 15 min; RIPA lysate precipitated with anti-TrkA antibody, blotted with anti-TrkA and anti-myc

TrkA, sequence (P35739 33-799): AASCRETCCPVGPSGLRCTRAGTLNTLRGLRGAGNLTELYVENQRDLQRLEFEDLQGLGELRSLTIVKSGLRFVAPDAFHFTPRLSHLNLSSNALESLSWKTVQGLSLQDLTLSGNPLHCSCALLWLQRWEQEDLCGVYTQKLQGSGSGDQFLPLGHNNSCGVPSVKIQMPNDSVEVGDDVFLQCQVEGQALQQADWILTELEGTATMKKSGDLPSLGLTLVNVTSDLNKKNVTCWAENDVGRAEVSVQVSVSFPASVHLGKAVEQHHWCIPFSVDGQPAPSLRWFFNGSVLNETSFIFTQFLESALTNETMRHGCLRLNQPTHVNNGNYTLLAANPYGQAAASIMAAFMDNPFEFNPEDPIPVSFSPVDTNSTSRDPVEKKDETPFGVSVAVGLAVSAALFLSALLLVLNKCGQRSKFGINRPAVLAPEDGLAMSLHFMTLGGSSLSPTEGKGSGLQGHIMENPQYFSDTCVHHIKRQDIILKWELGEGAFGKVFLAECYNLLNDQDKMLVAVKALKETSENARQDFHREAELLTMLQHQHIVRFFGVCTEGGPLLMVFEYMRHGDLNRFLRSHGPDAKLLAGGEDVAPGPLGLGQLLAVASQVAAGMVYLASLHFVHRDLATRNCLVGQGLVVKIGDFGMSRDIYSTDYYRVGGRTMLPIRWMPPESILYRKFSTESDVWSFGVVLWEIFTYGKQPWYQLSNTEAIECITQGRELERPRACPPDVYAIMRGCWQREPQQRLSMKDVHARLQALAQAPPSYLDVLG

Substance: TrkA (from UniProt P35739 33-799) (receptor)
- relative amount of TrkA co-precipitated, as percent of that with SH2B1β [1]: 10%

Substance: myc-SH2B3 (from UniProt Q9UQQ2 1-575) (natural protein)
- relative amount co-precipitated with TrkA, as percent of SH2B1β [2]: 88%
